The text below walks through data of the supplement of paper PMC11246515.

± gives the standard deviation of the averaged measurements.

The nature of the series: total protein half-life in vivo (active degradation + dilution); higher = more stable protein.
Setting [1] is: E. coli NCM3722 delta-clpP delta-lon delta-hslV, growth: N-lim chemostat, doubling time 6 h.
Setting [2] is: E. coli NCM3722 delta-clpP, growth: N-lim chemostat, doubling time 6 h.
Where [3] appears, read: E. coli NCM3722 delta-hslV, growth: N-lim chemostat, doubling time 6 h.
Where [4] appears, read: E. coli NCM3722 delta-smpB, growth: N-lim chemostat, doubling time 6 h.
Where [5] appears, read: wild type E. coli NCM3722, growth: C-lim chemostat, doubling time 3 h.
Setting [6] is: wild type E. coli NCM3722, growth: C-lim chemostat, doubling time 6 h.
Setting [7] is: wild type E. coli NCM3722, growth: C-lim chemostat, doubling time 12 h.
Where [8] appears, read: wild type E. coli NCM3722, growth: N-lim chemostat, doubling time 6 h.
[9] abbreviates: wild type E. coli NCM3722, growth: N-lim chemostat, doubling time 12 h.
Where [10] appears, read: wild type E. coli NCM3722, growth: P-lim chemostat, doubling time 6 h.
The mark [11] stands for this setting: wild type E. coli NCM3722, growth: P-lim chemostat, doubling time 12 h.
The mark [12] stands for this setting: E. coli NCM3722 delta-lon, growth: N-lim chemostat, doubling time 6 h.

As for “MIVRILLLFIALFTFGVQAQAIKESYAFAVLGEPRYAFNFNHFDYVNPAAPKGGQITLSALGTFDNFNRYALRGNPGARTEQLYDTLFTTSDDEPGSYYPLIAESARYADDYSWVEVAINPRARFHDGSPITARDVEFTFQKFMTEGVPQFRLVYKGTTVKAIAPLTVRIELAKPGKEDMLSLFSLPVFPEKYWKDHKLSDPLATPPLASGPYRVTSWKMGQNIVYSRVKDYWAANLPVNRGRWNFDTIRYDYYLDDNVAFEAFKAGAFDLRMENDAKNWATRYTGKNFDKKYIIKDEQKNESAQDTRWLAFNIQRPVFSDRRVREAITLAFDFEWMNKALFYNAWSRTNSYFQNTEYAARNYPDAAELVLLAPMKKDLPSEVFTQIYQPPVSKGDGYDRDNLLKADKLLNEAGWVLKGQQRVNATTGQPLSFELLLPASSNSQWVLPFQHSLQRLGINMDIRKVDNSQITNRMRSRDYDMMPRVWRAMPWPSSDLQISWSSEYINSTYNAPGVQSPVIDSLINQIIAAQGNKEKLLPLGRALDRVLTWNYYMLPMWYMAEDRLAWWDKFSQPAVRPIYSLGIDTWWYDVNKAAKLPSASKQGE”, the “total protein half-life in vivo” value came to 6.04 ± 0.17 h under setting [1]; 6.38 ± 1.6 h under setting [2]; 5.79 ± 0.79 h under setting [3]; 5.92 ± 0.24 h under setting [4]; 3.0824 ± 5.7e-05 h under setting [5]; 6.076 ± 0.038 h under setting [6]. Further, the “total protein half-life in vivo” value reads like this: under setting [7], 13.3 ± 2.8 h; under setting [8], 6.19 ± 0.39 h; under setting [9], 12.8 ± 0.89 h; under setting [10], 6.46 ± 0.14 h; under setting [11], 12 ± 1.5 h.

On to “MQKRAIYPGTFDPITNGHIDIVTRATQMFDHVILAIAASPSKKPMFTLEERVALAQQATAHLGNVEVVGFSDLMANFARNQHATVLIRGLRAVADFEYEMQLAHMNRHLMPELESVFLMPSKEWSFISSSLVKEVARHQGDVTHFLPENVHQALMAKLA [P0A6I6]”, for which the “total protein half-life in vivo” value by setting is: under setting [1], 4.49 h; under setting [2], 5.11 ± 0.59 h; under setting [12], 5.58 h; under setting [4], 4.82 ± 1 h; under setting [6], 6.01 ± 0.25 h; under setting [7], 10.8 h. Besides, the “total protein half-life in vivo” value reads like this: under setting [8], 4.62 h; under setting [9], 7.33 ± 0.35 h; under setting [10], 6.14 ± 0.072 h; under setting [11], 12.9 ± 1 h.

Turning to “MVKKAIVTAMAVISLFTLMGCNNRAEVDTLSPAQAAELKPMPQSWRGVLPCADCEGIETSLFLEKDGTWVMNERYLGAREEPSSFASYGTWARTADKLVLTDSKGEKSYYRAKGDALEMLDREGNPIESQFNYTLEAAQSSLPMTPMTLRGMYFYMADAATFTDCATGKRFMVANNAELERSYLAARGHSEKPVLLSVEGHFTLEGNPDTGAPTKVLAPDTAGKFYPNQDCSSLGQ”, the “total protein half-life in vivo” value is, setting by setting: under setting [1], 5.34 ± 0.088 h; under setting [2], 5.68 ± 0.11 h; under setting [3], 5.99 ± 0.23 h; under setting [12], 6.787 ± 0.0084 h; under setting [4], 5.976 ± 0.058 h; under setting [5], 3.13 ± 0.2 h. Further, the “total protein half-life in vivo” value under setting [6] came out at 6.4 ± 0.79 h; the “total protein half-life in vivo” value under setting [7] was 10.7 ± 0.25 h; the “total protein half-life in vivo” value under setting [8] was 6.083 ± 0.0085 h; the “total protein half-life in vivo” value under setting [9] was found to be 11.5 ± 0.38 h; the “total protein half-life in vivo” value under setting [10] stood at 5.63 ± 0.41 h.

As for “MAAKDRIQAIKQMVANDKKVTVSNLSGIFQVTEETIRRDLEKLEDEGFLTRTYGGAVLNTAMLTENIHFYKRASSFYEEKQLIARKALPFIDNKTTMAADSSSTVMELLKLLQDRSGLTLLTNSAEAIHVLAQSEIKVVSTGGELNKNTLSLQGRITKEIIRRYHVDIMVMSCKGLDINSGALDSNEAEAEIKKTMIRQATEVALLVDHSKFDRKAFVQLADFSHINYIITDKSPGAEWIAFCKDNNIQLVW”, the “total protein half-life in vivo” value under setting [1] was determined as 5.6 ± 0.062 h; the “total protein half-life in vivo” value under setting [3] turned out to be 5.31 ± 0.24 h; the “total protein half-life in vivo” value under setting [12] turned out to be 5.25 ± 1.1 h; the “total protein half-life in vivo” value under setting [4] worked out at 5.12 ± 0.069 h; the “total protein half-life in vivo” value under setting [5] amounted to 2.93 ± 0.12 h; the “total protein half-life in vivo” value under setting [6] is 5.96 ± 0.83 h. The “total protein half-life in vivo” value came out at 9.64 ± 0.74 h under setting [7]; 5.5 ± 0.2 h under setting [8]; 9.92 ± 1.1 h under setting [9]; 5.45 ± 0.52 h under setting [10]; 13 ± 2.9 h under setting [11].

In the case of “MVLWQSDLRVSWRAQWLSLLIHGLVAAVILLMPWPLSYTPLWMVLLSLVVFDCVRSQRRINARQGEIRLLMDGRLRWQGQEWSIVKAPWMIKSGMMLRLRSDGGKRQHLWLAADSMDEAEWRDLRRILLQQETQR”, the “total protein half-life in vivo” value under setting [1] was 6.03 ± 0.068 h; the “total protein half-life in vivo” value under setting [2] worked out at 5.69 h; the “total protein half-life in vivo” value under setting [12] worked out at 4.15 ± 0.083 h; the “total protein half-life in vivo” value under setting [5] came out at 3.47 h; the “total protein half-life in vivo” value under setting [6] came out at 5.64 ± 1.5 h; the “total protein half-life in vivo” value under setting [7] came to 6.78 h. The “total protein half-life in vivo” value is, setting by setting: under setting [8], 5.67 h; under setting [9], 9.7 h; under setting [10], 3.85 ± 0.56 h; under setting [11], 7.57 h.

For the sequence “MPEPVAEPALNGLRLNLRIVSIVMFNFASYLTIGLPLAVLPGYVHDVMGFSAFWAGLVISLQYFATLLSRPHAGRYADSLGPKKIVVFGLCGCFLSGLGYLTAGLTASLPVISLLLLCLGRVILGIGQSFAGTGSTLWGVGVVGSLHIGRVISWNGIVTYGAMAMGAPLGVVFYHWGGLQALALIIMGVALVAILLAIPRPTVKASKGKPLPFRAVLGRVWLYGMALALASAGFGVIATFITLFYDAKGWDGAAFALTLFSCAFVGTRLLFPNGINRIGGLNVAMICFSVEIIGLLLVGVATMPWMAKIGVLLAGAGFSLVFPALGVVAVKAVPQQNQGAALATYTVFMDLSLGVTGPLAGLVMSWAGVPVIYLAAAGLVAIALLLTWRLKKRPPEHVPEAASSS”, under setting [2], the “total protein half-life in vivo” value came to 3.62 h.

Consider “MSKKYIIGIDGGSQSTKVVMYDLEGNVVCEGKGLLQPMHTPDADTAEHPDDDLWASLCFAGHDLMSQFAGNKEDIVGIGLGSIRCCRALLKADGTPAAPLISWQDARVTRPYEHTNPDVAYVTSFSGYLTHRLTGEFKDNIANYFGQWPVDYKSWAWSEDAAVMDKFNIPRHMLFDVQMPGTVLGHITPQAALATHFPAGLPVVCTTSDKPVEALGAGLLDDETAVISLGTYIALMMNGKALPKDPVAYWPIMSSIPQTLLYEGYGIRKGMWTVSWLRDMLGESLIQDARAQDLSPEDLLNKKASCVPPGCNGLMTVLDWLTNPWEPYKRGIMIGFDSSMDYAWIYRSILESVALTLKNNYDNMCNEMNHFAKHVIITGGGSNSDLFMQIFADVFNLPARRNAINGCASLGAAINTAVGLGLYPDYATAVDNMVRVKDIFIPIESNAKRYDAMNKGIFKDLTKHTDVILKKSYEVMHGELGNVDSIQSWSNA”, for which the “total protein half-life in vivo” value under setting [1] amounted to 2.5 h; the “total protein half-life in vivo” value under setting [5] stood at 2.855 ± 0.0047 h; the “total protein half-life in vivo” value under setting [6] was 4.03 ± 0.54 h; the “total protein half-life in vivo” value under setting [7] came out at 8.14 ± 1.2 h; the “total protein half-life in vivo” value under setting [11] amounted to 2.92 h.

On to “MKKIAIVGAGPTGIYTLFSLLQQQTPLSISIFEQADEAGVGMPYSDEENSKMMLANIASIEIPPIYCTYLEWLQKQEDSHLQRYGVKKETLHDRQFLPRILLGEYFRDQFLRLVDQARQQKFAVAVYESCQVTDLQITNAGVMLATNQDLPSETFDLAVIATGHVWPDEEEATRTYFPSPWSGLMEAKVDACNVGIMGTSLSGLDAAMAVAIQHGSFIEDDKQHVVFHRDNASEKLNITLLSRTGILPEADFYCPIPYEPLHIVTDQALNAEIQKGEEGLLDRVFRLIVEEIKFADPDWSQRIALESLNVDSFAQAWFAERKQRDPFDWAEKNLQEVERNKREKHTVPWRYVILRLHEAVQEIVPHLNEHDHKRFSKGLARVFIDNYAAIPSESIRRLLALREAGIIHILALGEDYKMEINESRTVLKTEDNSYSFDVFIDARGQRPLKVKDIPFPGLREQLQKTGDEIPDVGEDYTLQQPEDIRGRVAFGALPWLMHDQPFVQGLTACAEIGEAMARAVVKPASRARRRLSFD”, for which the “total protein half-life in vivo” value is 4.97 ± 0.15 h under setting [1]; 4.38 ± 0.22 h under setting [2]; 4.07 ± 0.29 h under setting [3]; 4.14 ± 0.29 h under setting [12]; 3.75 ± 0.084 h under setting [4]; 3.05 ± 0.16 h under setting [5]. In addition, the “total protein half-life in vivo” value under setting [6] stood at 5.2 ± 0.33 h; the “total protein half-life in vivo” value under setting [7] worked out at 8.04 ± 1.7 h; the “total protein half-life in vivo” value under setting [8] amounted to 3.89 ± 0.12 h; the “total protein half-life in vivo” value under setting [9] came out at 6.3 ± 0.43 h; the “total protein half-life in vivo” value under setting [10] was 5.59 ± 0.087 h; the “total protein half-life in vivo” value under setting [11] worked out at 9.95 ± 0.48 h.
